Results taken from patent US20110229491A1 (published 2011).

Biological target: T1, MCM5:YFPC fusion protein (Arabidopsis, UniProt O80786 1-727)
T1 construct: BiFC construct expressed in tobacco leaf epidermal cells; not shown: YFPC: fragment with amino acid residues 155-238 of YFP (plasmid pUC-SPYCE)
T1 sequence (looked up): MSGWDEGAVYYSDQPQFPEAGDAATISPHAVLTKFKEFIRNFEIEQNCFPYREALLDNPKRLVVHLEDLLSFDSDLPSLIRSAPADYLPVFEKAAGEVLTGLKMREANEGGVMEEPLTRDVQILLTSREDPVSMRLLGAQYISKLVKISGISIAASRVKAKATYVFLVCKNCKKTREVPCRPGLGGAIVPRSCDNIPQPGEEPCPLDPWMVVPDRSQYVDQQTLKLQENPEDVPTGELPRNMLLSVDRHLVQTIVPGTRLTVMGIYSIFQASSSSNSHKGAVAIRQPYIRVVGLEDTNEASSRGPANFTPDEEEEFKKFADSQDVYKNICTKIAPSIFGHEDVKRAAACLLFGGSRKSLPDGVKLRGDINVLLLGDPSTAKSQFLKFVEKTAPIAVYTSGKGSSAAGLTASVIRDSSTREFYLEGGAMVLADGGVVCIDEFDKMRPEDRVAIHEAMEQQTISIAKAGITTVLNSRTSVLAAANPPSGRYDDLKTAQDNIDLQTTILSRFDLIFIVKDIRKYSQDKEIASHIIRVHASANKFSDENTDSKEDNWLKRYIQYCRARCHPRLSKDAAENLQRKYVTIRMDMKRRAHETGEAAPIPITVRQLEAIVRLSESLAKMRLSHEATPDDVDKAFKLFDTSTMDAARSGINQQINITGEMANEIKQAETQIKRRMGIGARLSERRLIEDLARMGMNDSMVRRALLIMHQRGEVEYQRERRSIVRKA
Experiment: BiFC in tobacco leaf epidermal cells
Procedure: Full-length open reading frames of ETG1 and MCM5 were transferred into the pH7FWG2 destination vector (Karimi et al., 2002) by LR recombination reaction, resulting in ETG1:EGFP and MCM5:EYFP fusion proteins, respectively. BiFC assay was performed as described by Walter et al. (2004). The coding region of ETG1 was amplified with 5′-[…]-3′ (SEQ ID NO:28) and 5′-[…]-3′ (SEQ ID NO:29) primers, and cloned via BamHI-XhoI into the plasmid pUC-SPYNE (Walter et al., 2004), resulting in the plasmid expressed as the ETG1:YFPN fusion protein; the coding region of MCM5 was also obtained with 5′-[…]-3′ (SEQ ID NO:30) and 5′-[…]-3′ (SEQ ID NO:31) primers, and cloned via SpeI-SalI into the plasmid pUC-SPYCE (Walter et al., 2004) to give rise to the plasmid expressed as the MCM5:YFPC fusion protein.
The Agrobacterium strains containing both BiFC constructs were co-infiltrated into tobacco leaves. Epidermal cell layer of tobacco leaves were assayed for fluorescence using confocal laser scanning microscope (Zeiss) two to four days after infiltration. […] As expected, no fluorescence was detected when any combination with empty vectors was introduced into tobacco cells (FIG. 5, Panel C; ETG1-YFPN and YFPC, YFPN and MCM5-YFPC).

B1: ETG1:YFPN fusion protein (other, UniProt Q501D5 1-589, looked up)
chain: MGGPAYDCLTNPLGAVRFSFVNALSSGYDPASSVGKDWGVVDLFRHYFSDESAISQVPILDSSSIKWVQPKTLVRFRGMIQDMLGNEFYAGAYKDDSTWRTNKYSDVSQFPEGSSTEIQVWERRLLYCVPVPGKNQWTECSSQELKNRFLDLTGQNREKRVRVDEEMTDSMDSSTLEAGRNGSPFKKMKVGEATSSASESQVPQTSGIPPATSADSLPCLVKIYDSPESDLKLNDVVEFLGVLTFDPIVMMDTDTLDENSDALSEAESVQMPSGKVPRLHCLIHRKLETQHFLHGSSLLPEPKSPQIFKEIRESLMKYLTGLLGNDHIAAQFLLLHLLSKVHGRVDNVAVGKLSLNLIHLNKESMSIFGTQLSGALKSLLPFTQSIPLTIEYLNTASFGPKKDYGINRLMPGVLQIADGTHLILDETELQPGTLNSVGVENANLLKNLLECQKVEYDFQYYKMEMATDVQMLIFSEGKSNIMPADLVLPLQPSQVNSLEVITPETAETWRCYLATCKSLSHSIGQELQQVVENDLVAARQTDRSLGSQDLSRLLTMARMMSVSYGETTLSLEHWQMVLELERLRKERLK
notes: range 1-589;range 1-154; BiFC construct expressed in tobacco leaf epidermal cells; not shown: YFPN: fragment with amino acid residues 1-154 of YFP (plasmid pUC-SPYNE)
B1: binds.
